From patent publication US20210371505A1

Target: Hemagglutinin of A/Wisconsin/67/2005 (H3N2) overexpressed on 3T3 cells (Influenza A virus A/Wisconsin/67/2005 (H3N2))
Experiment: cell-based or functional assay

B1: H1H14612N2 (antibody, V domains shown)
VH: EVQLVESGGGLVKPGGSLRLSCAASGFSFSGFSMNWVRQAPGKGLEWVSSISTSGNYMYYADSVKGRFTISRDNAKKSFSLQMNSLRAEDSAIYYCARGGGYNWNLFDYWGQGSLVTVSS
VL: EIVLTQSPGTLSLSPGERATLSCRASQSLNSNYLAWYQQKPGQAPRLLIYGASSRATGIPDRFSGSGSGADFTLTISRLESEDFAVYYCQQYGNSPLTFGGGTKVEIK
EC50, ADCC with human donor PBMCs (CytoTox-Glo): 176 pM
EC50, FcγRIIIA activation in the ADCC-Glo reporter bioassay (Promega): 688 pM
